Measured values taken from US20250241939A1, “NUCLEIC ACID-BASED DELIVERY SYSTEMS AND USES THEREOF” (Kodikaz Therapeutic Solutions, Inc., priority 2022, published 2025).

B1: 55 (nucleic acid, listed as Homo sapiens)
chain: GCGGTGGCTCACGCTTGTAATCCCAGCACTTTGGGAGGCCGAGGTGGGCGGATCACGAGGTCAGGAGATCAAGACCACGGTGAAACCCCATCTCTACTAAAAATATAAAAAATTAGCCGGGCGTGGTGGTGGGCGCCTGTAATCCCAGCTACTCAGAGAGGCTGAGGCAGGAGAAGGGCGTGAACCCGGGAGGCGGAGCTTGTAGTGAGCTGAGATCGCGCCACTGCACTCCAGCACCCCAGCCTGGGTGACAGAGCGAGACTCCGTCTCAAAAAAATAATAATAATAATTAAATAAATAA
B2: 58 (nucleic acid, listed as Homo sapiens)
chain: TAGATGGAGGGGGAAAAACAGGGTGGGGAGCGGGAGGGAGGGAAGGTTTTGCAGAAAGACGGCGGTTAAAAAGTTTATGGGTAGATGGAGGGGGAAAAGAGGGTGGCAAGTGGGAGGAGGAAAGAGGGTGATAAGGGGGGGAAGTGGGGGTGAGCAGTAGGGAGAGAAGGTTTTGTGAAAAAAATGGGGAGAAAGGTTTTGGTTAGACGGGAGAAAAGAGGGTAACAAGTTGGGGAAGGAAAAAGAGGGTAGCTAGGAAGAAGACAAGGTTTTGCGAAAAGATAGCGGCCAGAAAAGAAAGACGGTGGAGAAAGGAAAGACGGTGGGTAAAAAGTGGGTAGATGGAGTGGGGAAAGAGGGT
B3: 52 (nucleic acid, listed as Homo sapiens)
chain: TCATCTCACAGAGTTAAACCTTTCTTTTGATTGAGCAGTTTTGAAACTCTCTTTTTGTAGAATCTACAAGTGGACATTGGGAGCTCTTTGAGGCCTATGTTAGAAAAGGAAATATCTTCACATAAAACCTAGATAGAGGCAATCTGAGAAACATCTTTGTGATGTGTGCATTCATCTCACGGAGTTAAACCTTTCTTTTCGTTGAGCAGTTTTTAAACTGTCTTTTTGTAGAATGTGCAAGTGGACATTTGGAGCGCTTTTTGTCCTATGGTGGGAAAGGAAGTATCTTCACATAAAAACTAGACCGAAGAATTCTGAGAAACTTCTTTGTGACGTGTACGTTCATCTCACTGAGTTGAACCTTTCTTTTGATTGAGCAGTTTGGAAACACTCTTTTTGTAGAATCTGCAAGTAGACATTTGGAGCGCTTTTCAGCCTACGGTAGAAAAGGAAATATCTTCACATCACAAAGAGAGAGTTTCAAAACTGCTCTATCAAAAGAAAGGTTTAACCCTGTGCGATGAATGCACATATCACAAAGAAGTTTCTCAGATTGCTTCTGTCTAGATTTTATGTGAAGATATTCCTTTTTCCACCATAGGCCTCAAAGCGCTCCAAATGTCCACTTGCAGATTCTACAAAAAGAGTGCTTCCAAACTGCTCGATGAAAAAAATGGTTCAACTCTGTGAGATGAATGCACGCATCACAAAGAAGTTTCTCAGAATTTTTCTATCTAGTATTTATTTGAAGATATTTCATTTTCCACCAT
B4: 50 (nucleic acid, listed as Homo sapiens)
chain: CAGTCTTTCAGGACCAGAAGAGATGGATTTTAGGTTTTCCTTCCACTCAATGTATTCTATATGTACCCTAATCAACAAACATGCCTGGTTGTCACAGGTAGAAGGGGTCTCTACTCTGAATCATTCAGAGAAGAAATAATCATATTCTTTCGATGCTATCACTAACACAGGACCGTGATCCGAGACAACCAGGTTCAGTTCTTGATATGTAAAGGAATTTGGGAAAATATCATCTCTCACCACAAAATCTGTATTTTTATGTATATTTAAGCAAAATCCTGTTTTGGTCATCATTTTCTTTACCTTTCTTCTATATCCATCCTAATCTCCCTTTCAGC

The molecules below were run on MIA (pancreatic cancer) cell genome (assay: ctDNA coculture with MIA cells, whole genome sequencing: genomic insertion sites, transposons at insertion points and SNVs (pancreatic cancer)). Settings: TABLE 4; identified genomic insertion site, chromosome.
Type: cell-based, human
Method: The integration of ctDNAs into the host cell genome was evaluated. ctDNA was extracted from patient plasma, cultured for 24 hours with cells of a matching cancer cell type or non-matching cancer cell type, and whole genome sequencing was performed. The cell lines used were MM1s (multiple myeloma, MM) and MIA (pancreatic cancer, PC).
The sequence data was used to reconstruct genomic contigs for each experimental condition by de novo assembly. […] Coculture contigs carrying a ctDNA insertion were identified using NucDiff analysis.
Experiments were designed to identify the presence of transposons in ctDNA fragments. To map ctDNA genomic junctions more precisely, a PACBIO probe was ligated to multiple myeloma and pancreatic cancer ctDNA samples to label their 5′ and 3′ ends. Whole-genome sequencing of DNA from cells with ctDNA genomic integration was done using the Illumina platform. De novo assembly was performed on the sequencing output. ctDNA contigs containing PACBIO adaptor were then matched to those contigs containing inserted ctDNA sequences identified in the coculture experiments. Transposable element on ctDNA sequences at the insertion points (<100 nucleotides from transition point between cell and ctDNA) were detected and classified using RepeatMaster.
A search was conducted for transposons that preferentially target cells of matching tumor types. The lists of transposons identified at the ctDNA insertion point in matching and mismatched coculture conditions were compared (e.g., MM ctDNA with MM cells or PC cells). Transposons were selected that were uniquely or preferentially inserted in the matching conditions.
Whole-genome sequencing and Whole exon sequencing: ctDNA was extracted from 10 MM and 10 PC patients. DNA from CD138 (+) cells and from cell lines used in in vitro experiments (MM1s and MIA) was extracted using Blood & Cell Culture DNA Mini Kit (Quiagen, MD). DNA from […] paraffin embedded pancreatic tumors was obtained using QIAamp DNA FFPE Tissue Kit Print (Qiagen, MD).
After extraction, ctDNA was ligated to the PACBIO adaptor ([…]) using the ABM DNA Library Prep Kit for Illumina Sequencing (Applied Biological Materials Inc. Canada). PACBio-labeled ctDNA and regular ctDNA were subjected to standard methods for library preparation and sequencing using Illumina and Agilent protocols, respectively. Applied Biological Materials Inc. prepared the libraries and performed whole-exon and -genome sequencing.
Identification of transposable elements and its nucleotide variants: To determine the locations of transposable-like regions in contigs, sequences were analyzed and transposable elements (TEs) were identified and classified using RepeatMasker version 4.1.0 and the Dfam database (release 3.1) of repetitive DNA families was used as a reference for identifying repeats in ctDNA contig sequences that were part of qualifying structural events. For each repeat sequence identified by RepeatMasker, the overall frequency of the specific repeat (e.g., for AluSp or L1) and their parent class (e.g., SINE) was computed.
Once the TE elements were identified, hit repeats/TE sequences, unique contigs for all samples, and insertion sequence were aligned with MAFFT software version. Mutations in TE sequences were identified by comparison of nucleotides at each position in the multiple sequence alignment with the “Biostrings” R package (version 4.1). A position was considered to contain mutation if the substitution was present in contigs of all samples.

Question: With B1 as the molecule, how does the Location read?
Answer: Chr 14

Question: Which Location does the source give for B2 here?
Answer: Chr 13

Question: Which Location does the source give for B3 here?
Answer: Chr 7

Question: With B4 as the molecule, how does the Location read?
Answer: Chr 7

Same assay, conditions: TABLE 4; number of single nucleotide variants (SNVs or SNPs) identified; polynucleotides for pancreatic cancer cells

Question: With B1 as the molecule, how does the “No. SNP” value read?
Answer: 1

Question: For B2, which “No. SNP” value is on record?
Answer: 1

Question: For B3, which “No. SNP” value is on record?
Answer: 55

Question: Which “No. SNP” value does the source give for B4 here?
Answer: 3

Same assay, conditions: TABLE 4; position on the chromosome of the identified genomic insertion site

Question: With B1 as the molecule, how does the Chr location read?
Answer: 103067410

Question: With B2 as the molecule, how does the Chr location read?
Answer: 19693028

Question: How did the Chr location turn out when B3 was run?
Answer: 57988111

Question: B4 was tested. Which Chr location did it give?
Answer: 18828526
